Source: patent US20040259122A1 (MICHIGAN STATE UNIVERSITY, published 2004)
Substitutions are numbered along the chain they refer to.

T1: Whi2 (activation domain fusion prey) (UniProt P12611 1-486)
T1 construct: not shown: not described
T1 sequence (looked up): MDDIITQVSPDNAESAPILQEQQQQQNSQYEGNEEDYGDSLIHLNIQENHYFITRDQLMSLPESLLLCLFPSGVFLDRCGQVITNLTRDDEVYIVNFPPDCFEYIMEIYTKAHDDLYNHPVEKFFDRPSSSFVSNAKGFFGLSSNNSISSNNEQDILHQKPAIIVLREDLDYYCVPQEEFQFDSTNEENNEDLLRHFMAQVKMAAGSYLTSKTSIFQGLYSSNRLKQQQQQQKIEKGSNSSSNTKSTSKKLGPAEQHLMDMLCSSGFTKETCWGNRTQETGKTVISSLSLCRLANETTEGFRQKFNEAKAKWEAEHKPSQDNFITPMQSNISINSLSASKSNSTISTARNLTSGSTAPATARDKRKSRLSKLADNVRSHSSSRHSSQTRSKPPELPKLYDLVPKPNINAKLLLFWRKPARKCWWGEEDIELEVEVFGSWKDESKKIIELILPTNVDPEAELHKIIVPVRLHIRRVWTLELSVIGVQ

T2: Fcp1 (activation domain fusion prey) (UniProt Q03254 1-732)
T2 construct: not shown: not described
T2 sequence (looked up): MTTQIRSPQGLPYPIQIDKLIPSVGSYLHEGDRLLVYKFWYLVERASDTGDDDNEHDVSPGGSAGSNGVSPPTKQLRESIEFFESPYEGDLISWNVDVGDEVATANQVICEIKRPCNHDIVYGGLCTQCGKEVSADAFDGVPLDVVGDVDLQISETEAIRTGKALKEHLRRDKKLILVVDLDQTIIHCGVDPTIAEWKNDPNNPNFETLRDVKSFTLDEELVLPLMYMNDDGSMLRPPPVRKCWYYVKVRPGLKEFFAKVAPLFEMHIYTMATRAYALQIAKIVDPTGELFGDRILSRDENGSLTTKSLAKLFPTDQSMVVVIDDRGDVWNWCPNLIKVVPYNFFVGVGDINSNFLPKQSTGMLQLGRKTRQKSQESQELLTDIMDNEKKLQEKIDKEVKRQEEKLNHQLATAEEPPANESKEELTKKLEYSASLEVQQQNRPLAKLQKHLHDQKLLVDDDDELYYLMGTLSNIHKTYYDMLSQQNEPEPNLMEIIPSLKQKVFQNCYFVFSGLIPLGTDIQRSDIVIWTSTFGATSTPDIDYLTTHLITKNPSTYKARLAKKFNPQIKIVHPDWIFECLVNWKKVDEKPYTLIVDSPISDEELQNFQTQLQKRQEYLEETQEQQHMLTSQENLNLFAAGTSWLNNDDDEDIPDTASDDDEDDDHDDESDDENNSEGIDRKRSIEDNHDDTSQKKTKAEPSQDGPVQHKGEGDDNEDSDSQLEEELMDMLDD

T3: Tfb3 (activation domain fusion prey) (UniProt Q03290 1-321)
T3 construct: not shown: not described
T3 sequence (looked up): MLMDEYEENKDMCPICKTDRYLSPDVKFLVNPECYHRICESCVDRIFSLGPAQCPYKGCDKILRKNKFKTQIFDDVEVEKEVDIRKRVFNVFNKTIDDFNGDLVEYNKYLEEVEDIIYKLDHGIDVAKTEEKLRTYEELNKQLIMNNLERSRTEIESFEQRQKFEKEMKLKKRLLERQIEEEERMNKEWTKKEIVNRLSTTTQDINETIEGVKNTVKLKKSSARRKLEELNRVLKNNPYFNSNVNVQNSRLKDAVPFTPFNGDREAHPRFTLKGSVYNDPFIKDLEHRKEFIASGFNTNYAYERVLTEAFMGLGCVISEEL

T4: YDR428c (activation domain fusion prey) (UniProt Q04066 1-261)
T4 construct: not shown: not described
T4 sequence (looked up): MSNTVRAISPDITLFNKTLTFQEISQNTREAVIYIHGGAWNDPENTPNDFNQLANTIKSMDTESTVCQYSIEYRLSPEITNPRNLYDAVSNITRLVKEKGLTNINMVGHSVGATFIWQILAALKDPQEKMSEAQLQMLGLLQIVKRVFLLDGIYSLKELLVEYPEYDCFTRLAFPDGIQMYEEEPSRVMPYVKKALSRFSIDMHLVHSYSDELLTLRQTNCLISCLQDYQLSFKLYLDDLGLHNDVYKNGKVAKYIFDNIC

T5: Ssn8 (activation domain fusion prey) (UniProt P47821 1-323)
T5 construct: also called Srb11; not shown: not described
T5 sequence (looked up): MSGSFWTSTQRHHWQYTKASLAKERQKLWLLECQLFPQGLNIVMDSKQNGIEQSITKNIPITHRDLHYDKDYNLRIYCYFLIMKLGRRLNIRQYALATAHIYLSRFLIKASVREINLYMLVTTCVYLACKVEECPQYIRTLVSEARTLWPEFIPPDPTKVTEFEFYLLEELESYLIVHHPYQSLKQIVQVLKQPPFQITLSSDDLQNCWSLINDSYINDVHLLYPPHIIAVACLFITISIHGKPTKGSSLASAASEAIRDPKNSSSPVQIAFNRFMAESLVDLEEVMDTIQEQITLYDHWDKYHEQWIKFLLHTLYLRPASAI

B1: CTD fused to the wildtype Kin28 (pMK500) (other)
chain: MKLLSSIEQACDICRLKKLKCSKEKPKCAKCLKNNWECRYSPKTKRSPLTRAHLTEVESRLERLEQLFLLIFPREDLDMILKMDSLQDIKALLTGLFVQDNVNKDAVTDRLASVETDMPLTLRQHRISATSSSEESSNKGQRQLTVSNYLFDDEDTPPNPKKEIELENLYFQGEFQYSPTSPSYSLTSPSYSPTSPSLTTMAMKVNMEYTKEKKVGEGTYAVVYLGCQHSTGRKIAIKEIKTSEFKDGLDMSAIREVKYLQEMQHPNVIELIDIFMAYDNLNLVLEFLPTDLEVVIKDKSILFTPADIKAWMLMTLRGVYHCHRNFILHRDLKPNNLLFSPDGQIKVADFGLARAIPAPHEILTSNVVTRWYRAPELLFGAKHYTSAIDIWSVGVIFAELMLRIPYLPGQNDVDQMEVTFRALGTPTDRDWPEVSSFMTYNKLQIYPPPSRDELRKRFIAASEYALDFMCGMLTMNPQKRWTAVQCLESDYFKELPPPSDPSSIKIRNVMAIPGGGRIFYPYDVPDYAGYPYDVPDYAGSYPYDVPDYAAQCGRSS
modifications: CTD phosphorylated at the fifth residue (Ser5) by the tethered wildtype Kin28
notes: also called CTD-Kin28 (wildtype); phosphorylated CTD
B2: CTD fused to the mutant Kin28 (pDG502) (other)
chain: B1 chain with E256Q
notes: also called CTD-Kin28 mutant
B3: Kin28 alone bait (pMK498) (other)
chain: MKLLSSIEQACDICRLKKLKCSKEKPKCAKCLKNNWECRYSPKTKRSPLTRAHLTEVESRLERLEQLFLLIFPREDLDMILKMDSLQDIKALLTGLFVQDNVNKDAVTDRLASVETDMPLTLRQHRISATSSSEESSNKGQRQLTVSNYLFDDEDTPPNPKKEIELENLYFQGEFQLTTMAMKVNMEYTKEKKVGEGTYAVVYLGCQHSTGRKIAIKEIKTSEFKDGLDMSAIREVKYLQEMQHPNVIELIDIFMAYDNLNLVLEFLPTDLEVVIKDKSILFTPADIKAWMLMTLRGVYHCHRNFILHRDLKPNNLLFSPDGQIKVADFGLARAIPAPHEILTSNVVTRWYRAPELLFGAKHYTSAIDIWSVGVIFAELMLRIPYLPGQNDVDQMEVTFRALGTPTDRDWPEVSSFMTYNKLQIYPPPSRDELRKRFIAASEYALDFMCGMLTMNPQKRWTAVQCLESDYFKELPPPSDPSSIKIRNVMAIPGGGRIFYPYDVPDYAGYPYDVPDYAGSYPYDVPDYAAQCGRSS

Target: T1, Whi2 (activation domain fusion prey)
Test: yeast two-hybrid, growth in the presence of 3-AT
Procedure: (§1) Identification of proteins that interact specifically with the phosphorylated CTD. […] Proteins that interact specifically with the CTD-Kin28 (wildtype) but neither of the other two baits are considered phosphorylated CTD-interacting proteins. Yeast strains containing one of the three baits and a variety of preys (activation domain fusion proteins) were tested for their ability to grow in the presence of different concentration of 3-AT. The ability to grow in such medium indicates stable interactions between the bait(s) and the prey(s). The following proteins (numbered 1-7) are considered phosphorylated CTD-interacting proteins: Fcp1 (a phosphatase known to act on phosphorylated CTD), Ssn8 (or Srb11, a component of the RNA polymerase II holoenzyme), Tfb3 (a component of the RNA polymerase II holoenzyme), Whi2 (a protein involved in cellular growth and a component of a protein phosphatase complex containing the Psr1 catalytic subunit), and three novel proteins (YMR181c, YPL229w, and YDR428c) whose functional links to CTD phosphorylation are novel. In addition, previously known (i.e. Ccl1 and Pcl10) and unknown (YDL100c) Kin28-interacting proteins were also identified in this screen (A-C). Several putative phosphorylated CTD interacting proteins are not labeled due to the current lack of the sequence information.

| Binder | binding result |
| --- | --- |
| B1 | binds |
| B2 | no binding |
| B3 | no binding |

Target: T2, Fcp1 (activation domain fusion prey)
Test: yeast two-hybrid, growth in the presence of 3-AT
Procedure: as §1

| Binder | binding result |
| --- | --- |
| B1 | binds |
| B2 | no binding |
| B3 | no binding |

Target: T3, Tfb3 (activation domain fusion prey)
Test: yeast two-hybrid, growth in the presence of 3-AT
Procedure: as §1

| Binder | binding result |
| --- | --- |
| B1 | binds |
| B2 | no binding |
| B3 | no binding |

Target: T4, YDR428c (activation domain fusion prey)
Test: yeast two-hybrid, growth in the presence of 3-AT
Procedure: as §1

| Binder | binding result |
| --- | --- |
| B1 | binds |
| B2 | no binding |
| B3 | no binding |

Target: T5, Ssn8 (activation domain fusion prey)
Test: yeast two-hybrid, growth in the presence of 3-AT
Procedure: as §1

| Binder | binding result |
| --- | --- |
| B1 | binds |
| B2 | no binding |
| B3 | no binding |
